The results in this text go back to the array DNA melting data of Ke et al..

This data set can be described thus: melting temperature; melt of duplexes. The conditions noted are these: sodium 0.0675 M; strand 1 µM.
As for “CGACGTGCATAATGTGCTG+CAGCACATAACGCACGTCG ((((((((.(.((((((((+)))))))).).))))))))”, the Tm – broadly, the temperature at the midpoint of the melting transition – turned out to be 48.8 °C.

Regarding “CGACGTGCAGCATGTGCTG+CAGCACATCATGCACGTCG (((((((((..((((((((+))))))))..)))))))))”, the Tm was 49.5 °C.

As to “CGACGTGCCCGATGTGCTG+CAGCACATAAGGCACGTCG (((((((((..((((((((+))))))))..)))))))))”, the Tm is 54.5 °C.

Consider “CGACGTGCCGTATGTGCTG+CAGCACATATAGCACGTCG ((((((((..(((((((((+)))))))))..))))))))”, for which the Tm was found to be 52.1 °C.

For “CGACGTGCTAGATGTGCTG+CAGCACATCACGCACGTCG ((((((((..(((((((((+)))))))))..))))))))”, the Tm was 54.3 °C.

Turning to “CGACGTGCGAGATGTGCTG+CAGCACATCTGGCACGTCG ((((((((.((((((((((+)))))))))).))))))))”, the Tm is 59 °C.

As to “CGACGTGCGGCATGTGCTG+CAGCACATCGGGCACGTCG ((((((((...((((((((+))))))))...))))))))”, the Tm stood at 49.6 °C.

As to “CGACGTGCACCATGTGCTG+CAGCACATAAAGCACGTCG ((((((((...((((((((+))))))))...))))))))”, the Tm is 45 °C.

Regarding “CGACGTGCTGCATGTGCTG+CAGCACATGACGCACGTCG ((((((((..(((((((((+)))))))))..))))))))”, the Tm amounted to 52.9 °C.

“CGACGTGCGCAATGTGCTG+CAGCACATGGGGCACGTCG ((((((((.(.((((((((+)))))))).).))))))))”: the Tm came out at 56.5 °C.

For “CGACGTGCCGGATGTGCTG+CAGCACATAGCGCACGTCG ((((((((...((((((((+))))))))...))))))))”, the Tm came to 49.9 °C.

In the case of “CGACGTGCTGCATGTGCTG+CAGCACATCTTGCACGTCG ((((((((...((((((((+))))))))...))))))))”, the Tm is 50.1 °C.

Turning to “CGACGTGCTAGATGTGCTG+CAGCACATGTAGCACGTCG ((((((((((.((((((((+)))))))).))))))))))”, the midpoint of thermal melting (Tm) is 56.8 °C.

Turning to “CGACGTGCGCAATGTGCTG+CAGCACATTTAGCACGTCG ((((((((..(((((((((+)))))))))..))))))))”, the Tm is 53 °C.

As to “CGACGTGCCATATGTGCTG+CAGCACATTGCGCACGTCG ((((((((...((((((((+))))))))...))))))))”, the Tm is 51.5 °C.

Turning to “CGACGTGCACAATGTGCTG+CAGCACATTGAGCACGTCG ((((((((.((((((((((+)))))))))).))))))))”, the Tm stood at 56.9 °C.

On to “CGACGTGCGGGATGTGCTG+CAGCACATATAGCACGTCG ((((((((...((((((((+))))))))...))))))))”, for which the Tm came to 52.8 °C.

On to “CGACGTGCGCCATGTGCTG+CAGCACATACCGCACGTCG (((((((((..((((((((+))))))))..)))))))))”, for which the Tm is 51 °C.

With “CGACGTGCTCGATGTGCTG+CAGCACATTAAGCACGTCG (((((((((..((((((((+))))))))..)))))))))”, the Tm was 51.9 °C.

In the case of “CGACGTGCCTTATGTGCTG+CAGCACATCCTGCACGTCG ((((((((...((((((((+))))))))...))))))))”, the Tm amounted to 47.2 °C.

With “CGACGTGCTAGATGTGCTG+CAGCACATGCAGCACGTCG (((((((((..((((((((+))))))))..)))))))))”, the Tm was 53 °C.

In the case of “CGACGTGCTAAATGTGCTG+CAGCACATCCGGCACGTCG ((((((((...((((((((+))))))))...))))))))”, the Tm is 49.5 °C.

Turning to “CGACGTGCCCAATGTGCTG+CAGCACATTGTGCACGTCG ((((((((.((((((((((+)))))))))).))))))))”, the Tm was found to be 54.7 °C.

On to “CGACGTGCCCTATGTGCTG+CAGCACATTCAGCACGTCG ((((((((...((((((((+))))))))...))))))))”, for which the Tm came to 48.8 °C.

As for “CGACGTGCCACATGTGCTG+CAGCACATAAGGCACGTCG (((((((((..((((((((+))))))))..)))))))))”, the Tm was 54 °C.

In the case of “CGACGTGCTGCATGTGCTG+CAGCACATCATGCACGTCG ((((((((...((((((((+))))))))...))))))))”, the Tm worked out at 52.1 °C.

With “CGACGTGCAGGATGTGCTG+CAGCACATGTGGCACGTCG ((((((((...((((((((+))))))))...))))))))”, the Tm was 50.9 °C.

Consider “CGACGTGCCCCATGTGCTG+CAGCACATTTCGCACGTCG ((((((((...((((((((+))))))))...))))))))”, for which the Tm worked out at 46 °C.

Regarding “CGACGTGCGGAATGTGCTG+CAGCACATTCTGCACGTCG ((((((((.((((((((((+)))))))))).))))))))”, the Tm was determined as 61.1 °C.

On to “CGACGTGCTCTATGTGCTG+CAGCACATAGGGCACGTCG ((((((((.((((((((((+)))))))))).))))))))”, for which the Tm amounted to 58.4 °C.

For “CGACGTGCTCTATGTGCTG+CAGCACATAATGCACGTCG ((((((((..(((((((((+)))))))))..))))))))”, the Tm is 50.4 °C.

Regarding “CGACGTGCACTATGTGCTG+CAGCACATGGCGCACGTCG ((((((((.(.((((((((+)))))))).).))))))))”, the Tm amounted to 50.3 °C.

With “CGACGTGCGCCATGTGCTG+CAGCACATTAAGCACGTCG ((((((((...((((((((+))))))))...))))))))”, the Tm amounted to 52.1 °C.

Take “CGACGTGCGGGATGTGCTG+CAGCACATTGTGCACGTCG ((((((((...((((((((+))))))))...))))))))”: the Tm amounted to 49.4 °C.

Regarding “CGACGTGCACCATGTGCTG+CAGCACATTGGGCACGTCG ((((((((.(.((((((((+)))))))).).))))))))”, the Tm was 52.5 °C.

Regarding “CGACGTGCGACATGTGCTG+CAGCACATTCCGCACGTCG (((((((((..((((((((+))))))))..)))))))))”, the Tm worked out at 53.6 °C.

“CGACGTGCTAGATGTGCTG+CAGCACATCCAGCACGTCG (((((((((.(((((((((+))))))))).)))))))))”: the Tm is 56.1 °C.

With “CGACGTGCGGAATGTGCTG+CAGCACATGCCGCACGTCG ((((((((((.((((((((+)))))))).))))))))))”, the Tm was 62.1 °C.

With “CGACGTGCAGAATGTGCTG+CAGCACATTGCGCACGTCG ((((((((..(((((((((+)))))))))..))))))))”, the Tm stood at 52.1 °C.

Regarding “CGACGTGCATGATGTGCTG+CAGCACATCGAGCACGTCG ((((((((..(((((((((+)))))))))..))))))))”, the Tm worked out at 56.1 °C.

For “CGACGTGCTATATGTGCTG+CAGCACATTACGCACGTCG ((((((((...((((((((+))))))))...))))))))”, the Tm was determined as 49.3 °C.

“CGACGTGCGAAATGTGCTG+CAGCACATAGAGCACGTCG ((((((((...((((((((+))))))))...))))))))”: the Tm worked out at 56.2 °C.

“CGACGTGCGTGATGTGCTG+CAGCACATCTAGCACGTCG ((((((((..(((((((((+)))))))))..))))))))”: the Tm came out at 57.2 °C.

“CGACGTGCGGGATGTGCTG+CAGCACATACGGCACGTCG ((((((((.(.((((((((+)))))))).).))))))))”: the Tm worked out at 55.6 °C.

For “CGACGTGCATTATGTGCTG+CAGCACATCTCGCACGTCG ((((((((...((((((((+))))))))...))))))))”, the Tm stood at 47.1 °C.

In the case of “CGACGTGCAGCATGTGCTG+CAGCACATTCCGCACGTCG ((((((((.(.((((((((+)))))))).).))))))))”, the Tm came to 46.4 °C.

Regarding “CGACGTGCCAAATGTGCTG+CAGCACATTTAGCACGTCG ((((((((.((((((((((+)))))))))).))))))))”, the Tm is 54.4 °C.

For the substance “CGACGTGCCTGATGTGCTG+CAGCACATGACGCACGTCG ((((((((.(.((((((((+)))))))).).))))))))”, the Tm was 44.5 °C.

With “CGACGTGCGAGATGTGCTG+CAGCACATCCTGCACGTCG ((((((((..(((((((((+)))))))))..))))))))”, the Tm stood at 55.6 °C.

In the case of “CGACGTGCTTCATGTGCTG+CAGCACATGGCGCACGTCG ((((((((..(((((((((+)))))))))..))))))))”, the Tm was 53 °C.

For the substance “CGACGTGCTCGATGTGCTG+CAGCACATTGCGCACGTCG ((((((((.(.((((((((+)))))))).).))))))))”, the Tm came to 52.4 °C.

On to “CGACGTGCGGGATGTGCTG+CAGCACATGTAGCACGTCG ((((((((...((((((((+))))))))...))))))))”, for which the Tm turned out to be 53.7 °C.

Turning to “CGACGTGCCAAATGTGCTG+CAGCACATAGAGCACGTCG ((((((((...((((((((+))))))))...))))))))”, the Tm is 49.1 °C.

On to “CGACGTGCGTGATGTGCTG+CAGCACATATCGCACGTCG (((((((((..((((((((+))))))))..)))))))))”, for which the Tm was 54.6 °C.

For “CGACGTGCCACATGTGCTG+CAGCACATTTCGCACGTCG ((((((((.(.((((((((+)))))))).).))))))))”, the Tm was 47.3 °C.

As to “CGACGTGCTGCATGTGCTG+CAGCACATTAGGCACGTCG ((((((((...((((((((+))))))))...))))))))”, the Tm worked out at 50.4 °C.

For “CGACGTGCCCCATGTGCTG+CAGCACATAATGCACGTCG ((((((((...((((((((+))))))))...))))))))”, the Tm came out at 45.8 °C.

Turning to “CGACGTGCCCCATGTGCTG+CAGCACATTCTGCACGTCG ((((((((...((((((((+))))))))...))))))))”, the Tm stood at 46.9 °C.

With “CGACGTGCATCATGTGCTG+CAGCACATATCGCACGTCG ((((((((...((((((((+))))))))...))))))))”, the Tm is 47.4 °C.

For the substance “CGACGTGCTAAATGTGCTG+CAGCACATATAGCACGTCG ((((((((((.((((((((+)))))))).))))))))))”, the Tm stood at 55.4 °C.

For the substance “CGACGTGCCCGATGTGCTG+CAGCACATGGCGCACGTCG ((((((((.(.((((((((+)))))))).).))))))))”, the Tm was 53.3 °C.

As to “CGACGTGCGATATGTGCTG+CAGCACATCGCGCACGTCG (((((((((..((((((((+))))))))..)))))))))”, the Tm came to 53.6 °C.

“CGACGTGCAACATGTGCTG+CAGCACATGTCGCACGTCG ((((((((.((((((((((+)))))))))).))))))))”: the Tm came out at 57.8 °C.

As to “CGACGTGCCGGATGTGCTG+CAGCACATGCGGCACGTCG ((((((((((.((((((((+)))))))).))))))))))”, the Tm is 62.6 °C.

With “CGACGTGCGGGATGTGCTG+CAGCACATCGCGCACGTCG (((((((((.(((((((((+))))))))).)))))))))”, the Tm turned out to be 63.7 °C.

Turning to “CGACGTGCGAAATGTGCTG+CAGCACATTCTGCACGTCG ((((((((..(((((((((+)))))))))..))))))))”, the Tm turned out to be 53.7 °C.
